According to paper doi:10.1101/2024.06.03.594717:

Legend:
GST-FBXO22-SKP1 (human) = GST-FBXO22-SKP1 (human) (UniProt Q8NEZ5); assay: BLI; Octet Red 96, anti-GST probes loaded with 200 nM GST-FBXO22-SKP1, BACH1-BTB as analyte, 30°C; 25 mM HEPES pH 7.4, 100 mM NaCl, 1 mM TCEP, 0.1% Tween-20, 0.05 mg/mL BSA; Kd from steady-state equilibrium
[1] = biological target: Tag-free FBXO22-SKP1 complex (human) (UniProt Q8NEZ5); assay: SEC-MALS; Superdex 200 10/300 GL, 20 mM Tris-HCl pH 8.0, 150 mM NaCl, 0.25 mM TCEP, room temperature; tag-free FBXO22-SKP1, His-BACH1-BTB and their mixture
Sequence of Tag-free FBXO22-SKP1 complex (human) (Q8NEZ5 whole entry, chain 1 of 2): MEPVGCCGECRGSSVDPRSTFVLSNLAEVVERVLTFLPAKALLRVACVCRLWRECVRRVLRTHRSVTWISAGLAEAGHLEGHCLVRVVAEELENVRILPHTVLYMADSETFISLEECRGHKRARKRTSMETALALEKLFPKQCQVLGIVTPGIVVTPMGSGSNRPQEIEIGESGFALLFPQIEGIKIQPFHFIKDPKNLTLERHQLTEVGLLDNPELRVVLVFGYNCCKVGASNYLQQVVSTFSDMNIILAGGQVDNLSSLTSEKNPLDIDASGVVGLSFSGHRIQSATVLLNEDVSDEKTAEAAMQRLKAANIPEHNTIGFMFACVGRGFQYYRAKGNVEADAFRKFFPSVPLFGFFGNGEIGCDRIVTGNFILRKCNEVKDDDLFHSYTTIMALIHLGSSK
Sequence of Tag-free FBXO22-SKP1 complex (human) (P63208 whole entry, chain 2 of 2, further chain): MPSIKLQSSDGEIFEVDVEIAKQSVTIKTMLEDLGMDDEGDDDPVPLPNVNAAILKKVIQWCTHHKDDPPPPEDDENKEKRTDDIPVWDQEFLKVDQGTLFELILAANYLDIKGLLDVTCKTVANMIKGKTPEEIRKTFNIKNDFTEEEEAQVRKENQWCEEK

Sequence of BACH1 BTB domain (O14867 7-128): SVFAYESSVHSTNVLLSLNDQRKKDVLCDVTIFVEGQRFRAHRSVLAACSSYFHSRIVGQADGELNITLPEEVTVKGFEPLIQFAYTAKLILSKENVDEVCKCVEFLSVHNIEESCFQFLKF
Sequence of His-BACH1-BTB (O14867 7-128): as above
Sequence of GST-FBXO22-SKP1 (human) (Q8NEZ5 whole entry, chain 1 of 2): as the sequence (Q8NEZ5 whole entry, chain 1 of 2) above
Sequence of GST-FBXO22-SKP1 (human) (P63208 whole entry, chain 2 of 2, further chain): as the sequence (P63208 whole entry, chain 2 of 2, further chain) above

| Substance | Kd (GST-FBXO22-SKP1 (human)) [nM] | stoichiometry N (FBXO22-SKP1 per BACH1 BTB dimer) [1] |
| --- | --- | --- |
| BACH1 BTB domain (from UniProt O14867 7-128) (domain or fragment) | 90 | – |
| His-BACH1-BTB (from UniProt O14867 7-128) (domain or fragment) | – | 1 |
